In patent US20210324374:

Molecular target: Insulin (UniProt P01308+P01308)
Test: flow
Settings: dT replaced by C8-alkyne-dU clicked with phenylalanine azide (positions incorporated by polymerase); bead-based assay, buffer

Insulin, sequence (P01308 25-54, chain 1 of 2): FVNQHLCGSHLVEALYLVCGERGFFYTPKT
Insulin, sequence (P01308 90-110, chain 2 of 2): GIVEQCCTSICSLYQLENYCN

GCGCATACCAGCTTATTCAATCGTCGAGAACTCCTCCGGCTCTAACTCCGATTATAGCCAAAGATAGTAAGTGCAATCTCGGC [Ins24]
Kd: 2560 nM
